The results in this text go back to patent US20150064184A1 (ARMAGEN TECHNOLOGIES, published 2015).

Experiment [1] deals with T1, human insulin receptor extracellular domain (HIR ECD) (human, UniProt P06213 28-956, limits assumed).
T1 construct: extracellular domain; The ECD was plated on 96-well dishes for the ELISA
In words: ELISA, HIR ECD plated (second experiment).

Experiment [2] has as its target T1, human insulin receptor extracellular …. In words: ELISA, HIR ECD plated on Nunc-Maxisorb wells, detected with biotinylated anti-human IgG. Here is the method:
(§1) The affinity of the fusion protein for the HIR extracellular domain (ECD) was determined with an ELISA. CHO cells permanently transfected with the HIR ECD were grown in serum free media (SFM), and the HIR ECD was purified with a wheat germ agglutinin affinity column, as previously described in Coloma et al. (2000) Pharm Res, 17:266-274. The HIR ECD was plated on Nunc-Maxisorb 96 well dishes and the binding of the HIR Ab, or the HIR Ab-ASA fusion protein, to the HIR ECD was detected with a biotinylated goat anti-human IgG (H+L) secondary antibody, followed by avidin and biotinylated peroxidase (Vector Labs, Burlingame, Calif.). […] The MW of the HIR Ab is 150 kDa, and the MW of the HIR Ab-ASA fusion protein is 288 kDa.

Experiment [3] has the same target. In words: ELISA, HIR ECD plated, detected with biotinylated anti-human IgG.
The target is the same in experiment [4]. As to the kind of experiment: ELISA, HIR ECD plated; normalised for a MW of 150 kDa. The procedure:
as §1

For experiment [5] the target is unchanged. In words: ELISA, HIR ECD plated; normalised for a MW of 288 kDa. Here is the method: as §1

B1: chimeric HIRMAb (chimeric monoclonal antibody against the human insulin receptor) (antibody, human IgG1, kappa)
heavy: not shown
light: DIQMTQSPSSLSASLGERVSLTCRASQDIGGNLYWLQQGPDGTIKRLIYATSSLDSGVPKRFSGSRSGSDYSLTISSLESEDFVDYYCLQYSSSPWTFGGGTKMEIKRTVAAPSVFIFPPSDEQLKSGTASVVCLLNNFYPREAKVQWKVDNALQSGNSQESVTEQDSKDSTYSLSSTLTLSKADYEKHKVYACEVTHQGLSSPVTKSFNRGEC
notes: MW 150 kDa; also called HIR Ab; chimeric HIR Ab
Take B1: the EC50 in experiment [1] was 0.25 nM; in experiment [2], 0.035 µg/mL; in experiment [3] it was 0.77 nM; in experiment [4] it was 0.23 nM.

B2: HIRMAb-ASA fusion protein (HIR Ab fused at the carboxyl terminus of each heavy chain to mature human arylsulfatase A) (antibody, human IgG1, kappa)
heavy: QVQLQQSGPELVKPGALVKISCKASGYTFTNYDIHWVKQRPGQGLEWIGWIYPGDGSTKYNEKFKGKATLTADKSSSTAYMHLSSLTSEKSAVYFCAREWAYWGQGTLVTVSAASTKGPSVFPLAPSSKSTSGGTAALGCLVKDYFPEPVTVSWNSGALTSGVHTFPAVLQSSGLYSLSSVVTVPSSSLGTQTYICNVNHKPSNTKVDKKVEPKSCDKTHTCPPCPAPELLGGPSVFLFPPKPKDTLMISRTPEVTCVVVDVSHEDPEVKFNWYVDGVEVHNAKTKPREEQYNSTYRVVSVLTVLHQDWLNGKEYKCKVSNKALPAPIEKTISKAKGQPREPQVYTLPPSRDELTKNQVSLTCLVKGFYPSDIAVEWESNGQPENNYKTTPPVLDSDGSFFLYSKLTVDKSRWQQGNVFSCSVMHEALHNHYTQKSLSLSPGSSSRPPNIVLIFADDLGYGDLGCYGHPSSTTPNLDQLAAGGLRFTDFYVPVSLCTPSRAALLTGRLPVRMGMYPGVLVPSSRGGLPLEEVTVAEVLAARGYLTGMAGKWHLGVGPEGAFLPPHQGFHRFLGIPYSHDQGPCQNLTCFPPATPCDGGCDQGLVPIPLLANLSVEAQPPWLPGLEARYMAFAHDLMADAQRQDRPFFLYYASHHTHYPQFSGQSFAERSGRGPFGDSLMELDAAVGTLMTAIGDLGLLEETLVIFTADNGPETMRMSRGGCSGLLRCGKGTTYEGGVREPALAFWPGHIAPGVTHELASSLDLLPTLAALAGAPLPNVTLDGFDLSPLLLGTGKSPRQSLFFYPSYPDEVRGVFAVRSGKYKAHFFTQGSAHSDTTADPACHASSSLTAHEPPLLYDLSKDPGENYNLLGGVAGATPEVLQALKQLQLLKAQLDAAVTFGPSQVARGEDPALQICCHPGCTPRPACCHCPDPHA
light: B1 light
modifications: Cys-515 of SEQ ID NO 10 undergoes post-translational conversion to formylglycine (inferred by the filing from retained enzyme activity)
notes: Antibody-enzyme fusion made in CHO cells and purified on protein A. Hetero-tetramer with an estimated MW of 288 kDa; also called HIR Ab-ASA fusion protein; HIR Ab-ASA fusion antibody
With B2, the concentration giving a half-maximal response (EC50) worked out at 0.106 µg/mL in experiment [2] and 0.34 nM in experiment [5].

B3: HIR Ab-GUSB fusion protein (human GUSB fused to the carboxyl terminus of the HIR Ab heavy chain) (antibody, human IgG1, kappa)
heavy: not shown
light: B1 light
notes: range 23-633; also called HIRMAb-GUSB fusion protein; pCD-HC-GUSB plus pCD-LC product
For B3, in experiment [3], it took 0.81 nM to reach a half-maximal effect (EC50). This counts as sub-nanomolar.
